Tests used:
[1] = target: T1, H33 I-CreI mutant (C3 / HprCH3.3 cutter)
T1 chain: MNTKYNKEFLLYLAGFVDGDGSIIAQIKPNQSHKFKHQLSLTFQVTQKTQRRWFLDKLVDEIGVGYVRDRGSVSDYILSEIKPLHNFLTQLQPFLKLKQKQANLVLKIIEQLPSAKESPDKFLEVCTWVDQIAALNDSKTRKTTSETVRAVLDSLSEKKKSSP

[2] = target: the molecule itself; assay: analytical gel filtration (Superdex 200) of the purified single chain; no self-association
Method: Circular dichroism (CD) measurements were performed on a Jasco J-810 spectropolarimeter using a 0.2 cm path length quartz cuvette adm […] protein solutions in phosphate saline buffers. Equilibrium unfolding was induced increasing temperature at a rate of 1° C./min (using a programmable Peltier thermoelectric). Analytical gel filtration chromatography was performed at room temperature with an AKTA FPLC system (GE) using a Superdex 200 10/300GL column in 20 mM sodium phosphate buffer pH 6.0 1 M NaCl. A sample of 100 μL of SC-v3v2G19S constructs at a concentration of 0.3 mg/ml was injected and eluted at a flow rate of 0.2 ml/min. The column was calibrated with blue dextran (excluded volume) and molecular weight markers from 17 to 670 kDa (BioRad).

[3] = target: the molecule itself; assay: size-exclusion chromatography of the purified protein; no self-association
Method: The molecular weight of Sc I-CreI in solution was estimated by size-exclusion chromatography of the purified protein. The column fractions were analyzed by SDS-PAGE, and the 31.4 kDa band eluted primarily, which corresponded to a molecular mass of 30 kDa.

B1: X2-RM2-H33G19S single chain meganuclease (protein)
chain: MNTKYNKEFLLYLAGFVDGDGSIIAQIKPNQSHKFKHALQLTFKVTQKTQRRWFLDKLVDEIGVGYVQDSGSVSNYILSEIKPLHNFLTQLQPFLKLKQKQANLVLKIIEQLPSAKESPDKFLEVCTWVDQIAALNDSKTRKTTSETVRAVLDSLSEKKKSSPAAGGSDKYNQALSKYNQALSKYNQALSGGGGSNKEFLLYLAGFVDSDGSIIAQIKPNQSHKFKHQLSLAFQVTQKTQRRWFLDKLVDEIGVGYVRDRGSVSDYILSEIKPLHNFLTQLQPFLKLKQKQANLVLKIIWRLPSAKESPDKFLEVCTWVDQIAALNDSKTRKTTSETVRAVLDSLSEKKKSSP
For B1, the “cleavage of the palindromic C3 target (CHO extrachromosomal assay)” value was “greatly reduces the activity toward the C3 target”.

B2: M2-RM2-M3 RAG1 single chain meganuclease (protein)
chain: MNTKYNKEFLLYLAGFVDGDGSIIAQIKPRQSNKFKHQLSLTFAVTQKTQRRWFLDKLVDEIGVGYVYDSGSVSDYRLSEIKPLHNFLTQLQPFLKLKQKQANLVLKIIEQLPSAKESPDKFLEVCTWVDQIAALNDSKTRKTTSETVRAVLDSLSEKKKSSPAAGGSDKYNQALSKYNQALSKYNQALSGGGGSNKEFLLYLAGFVDGDGSIIAQINPNQSSKFKHRLRLTFYVTQKTQRRWFLDKLVDEIGVGYVRDSGSVSQYVLSEIKPLHNFLTQLQPFLKLKQKQANLVLKIIEQLPSAKESPDKFLEVCTWVDQIAALNDSKTRKTTSETVRAVLDSLSEKKKSSP
For B2, the “cleavage of the palindromic RAG1.10.2 target (yeast screen)” value was “M2-RM2-M3 was found to cleave also RAG1.10.2”.

B3: M2G19S-RM2-M3 RAG1 single chain meganuclease (protein)
chain: MNTKYNKEFLLYLAGFVDSDGSIIAQIKPRQSNKFKHQLSLTFAVTQKTQRRWFLDKLVDEIGVGYVYDSGSVSDYRLSEIKPLHNFLTQLQPFLKLKQKQANLVLKIIEQLPSAKESPDKFLEVCTWVDQIAALNDSKTRKTTSETVRAVLDSLSEKKKSSPAAGGSDKYNQALSKYNQALSKYNQALSGGGGSNKEFLLYLAGFVDGDGSIIAQINPNQSSKFKHRLRLTFYVTQKTQRRWFLDKLVDEIGVGYVRDSGSVSQYVLSEIKPLHNFLTQLQPFLKLKQKQANLVLKIIEQLPSAKESPDKFLEVCTWVDQIAALNDSKTRKTTSETVRAVLDSLSEKKKSSP
For B3, the “cleavage of the palindromic RAG1.10.2 target (yeast screen)” value was “abolishes RAG1.10.2 cleavage”.

B4: X2 I-CreI mutant (C4 cutter) (protein)
chain: MNTKYNKEFLLYLAGFVDGDGSIIAQIKPNQSHKFKHALQLTFKVTQKTQRRWFLDKLVDEIGVGYVQDSGSVSNYILSEIKPLHNFLTQLQPFLKLKQKQANLVLKIIEQLPSAKESPDKFLEVCTWVDQIAALNDSKTRKTTSETVRAVLDSLSEKKKSSP
With B4 the “cleavage of the palindromic C4 DNA target on co-expression of X2 and H33 in yeast” value was “but also the C3 and C4 targets” and the “cleavage of the XPC C1 DNA target on co-expression in yeast” value [1] was “cleaves the C1 target”.

B5: MA17 I-CreI mutant (HprCH3.4 cutter) (protein)
chain: MNTKYNKEFLLYLAGFVDGDGSIIAQIKPNQTHKFKHQLSLTFRVTQKTQRRWFLDKLVDEIGVGYVYDSGTVSNYNLSEIKPLHNFLTQLQPFLKLKQKQANLVLKIIEQLPSAKESPDKFLEVCTWVDQIAALNDSKTRKTTSETVRAVLDSLSEKKKSSP
In the case of B5, the “cleavage of the palindromic HprCH3.3 and HprCH3.4 targets on co-expression of MA17 and H33 in yeast” value is reported as “cleavage of the HprCH3.3 and HprCH3.4 targets” and the “cleavage of the HprCH3 DNA target on co-expression in yeast” value [1] is reported as “resulted in the cleavage of the HprCH3 DNA target”.

B6: H33 I-CreI mutant (C3 / HprCH3.3 cutter) (protein)
chain: MNTKYNKEFLLYLAGFVDGDGSIIAQIKPNQSHKFKHQLSLTFQVTQKTQRRWFLDKLVDEIGVGYVRDRGSVSDYILSEIKPLHNFLTQLQPFLKLKQKQANLVLKIIEQLPSAKESPDKFLEVCTWVDQIAALNDSKTRKTTSETVRAVLDSLSEKKKSSP
In the case of B6, the “cleavage of the palindromic HprCH3.3 and HprCH3.4 targets on co-expression of MA17 and H33 in yeast” value is reported as “cleavage of the HprCH3.3 and HprCH3.4 targets”.

B7: X2-L1-H33 single chain meganuclease (protein)
chain: MNTKYNKEFLLYLAGFVDGDGSIIAQIKPNQSHKFKHALQLTFKVTQKTQRRWFLDKLVDEIGVGYVQDSGSVSNYILSEIKPLHNFLTQLQPFLKLKQKQANLVLKIIEQLPSAKESPDKFLEVCTWVDQIAALNDSKTRKTTSETVRAVLDSLSEKKKSSPAAGGGGSGGGGSGGGGSGGGGSNKEFLLYLAGFVDGDGSIIAQIKPNQSHKFKHQLSLAFQVTQKTQRRWFLDKLVDEIGVGYVRDRGSVSDYILSEIKPLHNFLTQLQPFLKLKQKQANLVLKIIWRLPSAKESPDKFLEVCTWVDQIAALNDSKTRKTTSETVRAVLDSLSEKKKSSP
In the case of B7, the “cleavage of the palindromic C3 target (yeast screen and CHO extrachromosomal assay)” value is reported as “the strong cleavage of the C3 target with single chain molecules”.

B8: X2-RM2-H33 single chain meganuclease (protein)
chain: MNTKYNKEFLLYLAGFVDGDGSIIAQIKPNQSHKFKHALQLTFKVTQKTQRRWFLDKLVDEIGVGYVQDSGSVSNYILSEIKPLHNFLTQLQPFLKLKQKQANLVLKIIEQLPSAKESPDKFLEVCTWVDQIAALNDSKTRKTTSETVRAVLDSLSEKKKSSPAAGGSDKYNQALSKYNQALSKYNQALSGGGGSNKEFLLYLAGFVDGDGSIIAQIKPNQSHKFKHQLSLAFQVTQKTQRRWFLDKLVDEIGVGYVRDRGSVSDYILSEIKPLHNFLTQLQPFLKLKQKQANLVLKIIWRLPSAKESPDKFLEVCTWVDQIAALNDSKTRKTTSETVRAVLDSLSEKKKSSP
For B8, the “cleavage of the palindromic C3 target (yeast screen and CHO extrachromosomal assay)” value was “the strong cleavage of the C3 target with single chain molecules”.

B9: X2-L1-H33G19S single chain meganuclease (protein)
chain: MNTKYNKEFLLYLAGFVDGDGSIIAQIKPNQSHKFKHALQLTFKVTQKTQRRWFLDKLVDEIGVGYVQDSGSVSNYILSEIKPLHNFLTQLQPFLKLKQKQANLVLKIIEQLPSAKESPDKFLEVCTWVDQIAALNDSKTRKTTSETVRAVLDSLSEKKKSSPAAGGGGSGGGGSGGGGSGGGGSNKEFLLYLAGFVDSDGSIIAQIKPNQSHKFKHQLSLAFQVTQKTQRRWFLDKLVDEIGVGYVRDRGSVSDYILSEIKPLHNFLTQLQPFLKLKQKQANLVLKIIWRLPSAKESPDKFLEVCTWVDQIAALNDSKTRKTTSETVRAVLDSLSEKKKSSP
In the case of B9, the “cleavage of the palindromic C3 target (CHO extrachromosomal assay)” value is reported as “greatly reduces the activity toward the C3 target”.

B10: single-chain M3-RM2-M2G19S meganuclease (enzyme)
chain: MANTKYNKEFLLYLAGFVDGDGSIIAQINPNQSSKFKHRLRLTFYVTQKTQRRWFLDKLVDEIGVGYVRDSGSVSQYVLSEIKPLHNFLTQLQPFLKLKQKQANLVLKIIEQLPSAKESPDKFLEVCTWVDQIAALNDSKTRKTTSETVRAVLDSLSGKKKSSPAAGGSDKYNQALSKYNQALSKYNQALSGGGGSNKEFLLYLAGFVDSDGSIIAQIKPRQSNKFKHQLSLTFAVTQKTQRRWFLDKLVDEIGVGYVYDSGSVSDYRLSEIKPLHNFLTQLQPFLKLKQKQANLVLKIIEQLPSAKESPDKFLEVCTWVDQIAALNDSKTRKTTSETVRAVLDSLSEKKKSSP
notes: also called SC-v3v2G19S; not shown: His6 tag at the C-terminus
B10: no binding [2].

B11: Single chain I-CreI meganuclease (enzyme)
chain: MANTKYNKEFLLYLAGFVDGDGSIIAQIKPNQSYKFKHQLSLTFQVTQKTQRRWFLDKLVDEIGVGYVRDRGSVSDYILSEIKPLHNFLTQLQAMLERIRLFNMREFLLYLAGFVDGDGSIIAQIKPNQSYKFKHQLSLTFQVTQKTQRRWFLDKLVDEIGVGYVRDRGSVSDYILSEIKPLHNFLTQLQPFLKLKQKQANLVLKIIEQLPSAKESPDKFLEVCTWVDQIAALNDSKTRKTTSETVRAVLDSLSEKKKSSPAAD
notes: Produced 'with or without an histidine tag'; It was purified on a cobalt column; also called Sc I-CreI; scI-CreI
B11: no binding [3].

— patent US20100151556A1 (CELLECTIS, published 2010)
